Source: paper doi:10.1101/2022.10.22.513346 (bioRxiv, 2022)
No end group written: not given here.

T1: N-terminal intrinsically disordered region (IDR) of ATG8 INTERACTING PROTEIN1 (ATI1) (Arabidopsis thaliana, UniProt O82775 1-180)
T1 sequence (looked up): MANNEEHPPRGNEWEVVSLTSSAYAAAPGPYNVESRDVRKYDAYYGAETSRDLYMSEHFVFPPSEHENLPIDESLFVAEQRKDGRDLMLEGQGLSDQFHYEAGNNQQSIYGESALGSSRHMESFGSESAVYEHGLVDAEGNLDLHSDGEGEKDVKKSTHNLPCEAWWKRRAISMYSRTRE

B1: 15N-labeled AGO1 N-coil peptide, wild type (peptide)
peptide: SSSKAFKFPMRPGKGQSGKRC
modifications: also: 15N-labeled
B2: His6-SUMO-NcGN^AGO1 (N-coil plus globular N-domain of Arabidopsis AGO1), wild type N-coil (domain or fragment, Arabidopsis thaliana, UniProt O04379-2 172-335, looked up)
chain: SSSKAFKFPMRPGKGQSGKRCIVKANHFFAELPDKDLHHYDVTITPEVTSRGVNRAVMKQLVDNYRDSHLGSRLPAYDGRKSLYTAGPLPFNSKEFRINLLDEEVGAGGQRREREFKVVIKLVARADLHHLGMFLEGKQSDAPQEAAQVADIVSRELPTSRIRY
modifications: red maleimide fluorophore on Cys192 (Monolith NT Protein Labeling Kit Red - Maleimide)
B3: His6-SUMO-NcGN^AGO1 K178E (domain or fragment, Arabidopsis thaliana, UniProt O04379-2 172-335, looked up)
chain: SSSKAFEFPMRPGKGQSGKRCIVKANHFFAELPDKDLHHYDVTITPEVTSRGVNRAVMKQLVDNYRDSHLGSRLPAYDGRKSLYTAGPLPFNSKEFRINLLDEEVGAGGQRREREFKVVIKLVARADLHHLGMFLEGKQSDAPQEAAQVADIVSRELPTSRIRY
modifications: red maleimide fluorophore on Cys192 (Monolith NT Protein Labeling Kit Red - Maleimide)

Columns and labels:
[1] = biological target: T1, N-terminal intrinsically disordered …; assay: NMR titration
[2] = biological target: T1, N-terminal intrinsically disordered …; assay: MST

| Binder | binding result [1] | Kd [2] |
| --- | --- | --- |
| B1 | binds |  |
| B2 |  | 11 µM |
| B3 |  | 47 µM |
